Results: the supplement of paper PMC7125110
± gives the standard error. Variants at the floor of the assay were thinned out.

B1: glmS ribozyme (parent)
chain: AUAAAAGCGCCAGAACUACAGAAAUGUAGUUGACGAGGAGGAGGUUUAUCGAAUUUUCGGCGGAUGCCUCCAAA

Variants of: B1
Assay: self-cleavage kobs at 2500 uM GlcN6P; higher = faster cleavage; RNA array
Conditions: with glucosamine-6-phosphate
Outline: (§1)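 Tiles bearing barcoded ribozyme variants, transcribed in situ by E. coli RNA polymerase on sequenced MiSeq chips, were imaged over ~14 h at 37 °C using a hybridised Cy3 probe. Glucosamine-6-phosphate was supplied at 40 μM to 10 mM in HEPES/KCl/Mg(OAc)2 buffer. kobs came from one- or two-exponential decay fits to normalised per-tile medians, and weighted Michaelis–Menten fits then provided kcat and KM.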

Going from U47C U54A C70U to G37A U65G C67A, the “self-cleavage kobs at 2500 uM GlcN6P” value falls from 0.00241 ± 0.00052 s⁻¹ to 4.8e-05 ± 1.1e-05 s⁻¹ (50-fold).

C34G G59A and A42C A53C U55C cannot be ordered by “self-cleavage kobs at 2500 uM GlcN6P” value: less than 1e-05 s⁻¹ for the first, less than 1e-05 s⁻¹ for the second.

G32C U54G A64U and A42G C61A C70A cannot be ordered by “self-cleavage kobs at 2500 uM GlcN6P” value: less than 1e-05 s⁻¹ for the first, less than 1e-05 s⁻¹ for the second.

A36U G59C G63U and A33U A52C G63C cannot be ordered by “self-cleavage kobs at 2500 uM GlcN6P” value: less than 1e-05 s⁻¹ for the first, less than 1e-05 s⁻¹ for the second.

G32C G51U U56C and C34U U46G G66U cannot be ordered by “self-cleavage kobs at 2500 uM GlcN6P” value: less than 1e-05 s⁻¹ for the first, less than 1e-05 s⁻¹ for the second.

A39C G59A G63U and G41U U45C A64U cannot be ordered by “self-cleavage kobs at 2500 uM GlcN6P” value: less than 1e-05 s⁻¹ for the first, less than 1e-05 s⁻¹ for the second.

C34U G40A U57A and C34A C50U C67A cannot be ordered by “self-cleavage kobs at 2500 uM GlcN6P” value: less than 1e-05 s⁻¹ for the first, less than 1e-05 s⁻¹ for the second.

Going from A39U G41U U46A to G44A A48G U55A, the “self-cleavage kobs at 2500 uM GlcN6P” value falls from 4.67e-05 ± 1.4e-05 s⁻¹ to less than 1e-05 s⁻¹.

G41A A48U U57C G60A C61U C67U C71G and G32A U45C A52G cannot be ordered by “self-cleavage kobs at 2500 uM GlcN6P” value: less than 1e-05 s⁻¹ for the first, less than 1e-05 s⁻¹ for the second.

First: G43A G59C C68G
Second: G41U A52U U55A C70U
The “self-cleavage kobs at 2500 uM GlcN6P” value of the first is lower: less than 1e-05 s⁻¹ for the first, 6.63e-05 ± 1.6e-05 s⁻¹ for the second.

Going from G32A U54A C70G to G37C G60C C67A, the “self-cleavage kobs at 2500 uM GlcN6P” value falls from 0.000378 ± 5.3e-05 s⁻¹ to less than 1e-05 s⁻¹.

A33C A36C G38U G41A G66C and G32U U46A C50U cannot be ordered by “self-cleavage kobs at 2500 uM GlcN6P” value: less than 1e-05 s⁻¹ for the first, less than 1e-05 s⁻¹ for the second.

A36G G60U G63A C68A and A52U A53C C67G cannot be ordered by “self-cleavage kobs at 2500 uM GlcN6P” value: less than 1e-05 s⁻¹ for the first, less than 1e-05 s⁻¹ for the second.

G43A A53G G60U C70U and G37A G60U cannot be ordered by “self-cleavage kobs at 2500 uM GlcN6P” value: less than 1e-05 s⁻¹ for the first, less than 1e-05 s⁻¹ for the second.

G32C A33U G40U and G38C U45C C50A G51C C67U cannot be ordered by “self-cleavage kobs at 2500 uM GlcN6P” value: less than 1e-05 s⁻¹ for the first, less than 1e-05 s⁻¹ for the second.

G51C G66A and U46G A48U G59U U69C cannot be ordered by “self-cleavage kobs at 2500 uM GlcN6P” value: less than 1e-05 s⁻¹ for the first, less than 1e-05 s⁻¹ for the second.

A39U A52C C71A and C34A G41A U47C cannot be ordered by “self-cleavage kobs at 2500 uM GlcN6P” value: less than 1e-05 s⁻¹ for the first, less than 1e-05 s⁻¹ for the second.

G41U U47G U49A G66C C71U and G37U A42C U55G cannot be ordered by “self-cleavage kobs at 2500 uM GlcN6P” value: less than 1e-05 s⁻¹ for the first, less than 1e-05 s⁻¹ for the second.

First: G38C A39C U45A
Second: U45A U46A A52U
The “self-cleavage kobs at 2500 uM GlcN6P” value of the first is lower: less than 1e-05 s⁻¹ for the first, 8.04e-05 ± 3.5e-05 s⁻¹ for the second.

Compared with G32C G37C C50A G60C, C50G U55C is higher in “self-cleavage kobs at 2500 uM GlcN6P” value: less than 1e-05 s⁻¹ for the first, 3.57e-05 ± 1.6e-05 s⁻¹ for the second.

A39G G41U C68G and G37U A42U U54G U57A C67A cannot be ordered by “self-cleavage kobs at 2500 uM GlcN6P” value: less than 1e-05 s⁻¹ for the first, less than 1e-05 s⁻¹ for the second.

Compared with C50A A53G C58G C68A, G38A U55C U56C is lower in “self-cleavage kobs at 2500 uM GlcN6P” value: 0.000108 ± 3.9e-05 s⁻¹ for the first, less than 1e-05 s⁻¹ for the second.

G38A U49A C50A and A33C A36U G38C cannot be ordered by “self-cleavage kobs at 2500 uM GlcN6P” value: less than 1e-05 s⁻¹ for the first, less than 1e-05 s⁻¹ for the second.

Going from A33U C34A G44U A52C to G40U A42G C70U, the “self-cleavage kobs at 2500 uM GlcN6P” value rises from less than 1e-05 s⁻¹ to 0.00344 ± 0.00066 s⁻¹.

Going from A52C G59C A64U to G43A U47A, the “self-cleavage kobs at 2500 uM GlcN6P” value rises from less than 1e-05 s⁻¹ to 1.85e-05 ± 8.2e-06 s⁻¹.

Compared with G44U U57A C71A, A52G C58G C61A A64U C67U is higher in “self-cleavage kobs at 2500 uM GlcN6P” value: less than 1e-05 s⁻¹ for the first, 9.05e-05 ± 3.3e-05 s⁻¹ for the second.

A33U A48U G62U and A33U G35U G51C A64U cannot be ordered by “self-cleavage kobs at 2500 uM GlcN6P” value: less than 1e-05 s⁻¹ for the first, less than 1e-05 s⁻¹ for the second.

Going from A39U U65C C67G to C34G G51U U56C C67U, the “self-cleavage kobs at 2500 uM GlcN6P” value falls from 0.000168 ± 5.5e-05 s⁻¹ to less than 1e-05 s⁻¹.

G32U A42G C58G C70U and G37A A52U U57A are within error of each other in “self-cleavage kobs at 2500 uM GlcN6P” value: 0.000198 ± 8.4e-05 s⁻¹ for the first, 8.64e-05 ± 3.1e-05 s⁻¹ for the second.

Going from G35C G37A U49A A52G A53U U56G C61G to A52U U55C A64G, the “self-cleavage kobs at 2500 uM GlcN6P” value rises from less than 1e-05 s⁻¹ to 4.16e-05 ± 1.5e-05 s⁻¹.

Compared with U46A C67G C68U, A36C C50U G59A is lower in “self-cleavage kobs at 2500 uM GlcN6P” value: 0.000113 ± 5.1e-05 s⁻¹ for the first, less than 1e-05 s⁻¹ for the second.

C50U G60A G63A and G38U U45C U57A cannot be ordered by “self-cleavage kobs at 2500 uM GlcN6P” value: less than 1e-05 s⁻¹ for the first, less than 1e-05 s⁻¹ for the second.

Compared with G35C C50G U54G, A33C G38A C58U U65C is lower in “self-cleavage kobs at 2500 uM GlcN6P” value: 8.42e-05 ± 1.5e-05 s⁻¹ for the first, less than 1e-05 s⁻¹ for the second.

Compared with G40A U54G U69A, G38A A52G U57A C68A is higher in “self-cleavage kobs at 2500 uM GlcN6P” value: less than 1e-05 s⁻¹ for the first, 7.01e-05 ± 1.7e-05 s⁻¹ for the second.

First: A52G U57A C58G C71U
Second: A42U A52U U55C C70G
The “self-cleavage kobs at 2500 uM GlcN6P” value of the first is higher: 7.76e-05 ± 2.9e-05 s⁻¹ for the first, less than 1e-05 s⁻¹ for the second.

A36U G40U G41C and G32A G41U C50U U56A G62U cannot be ordered by “self-cleavage kobs at 2500 uM GlcN6P” value: less than 1e-05 s⁻¹ for the first, less than 1e-05 s⁻¹ for the second.

A42G C61A U65C and G32U A42C A53C U55A cannot be ordered by “self-cleavage kobs at 2500 uM GlcN6P” value: less than 1e-05 s⁻¹ for the first, less than 1e-05 s⁻¹ for the second.

In the case of U47G U56C C71A, the “self-cleavage kobs at 2500 uM GlcN6P” value is reported as 5.07e-05 ± 2.5e-05 s⁻¹.

Variants of: B1
Assay: self-cleavage kobs at 10000 uM GlcN6P; higher = faster cleavage; RNA array
Conditions: with glucosamine-6-phosphate
Outline: as §1

Compared with C34G G59A, A39U G41U U46A is higher in “self-cleavage kobs at 10000 uM GlcN6P” value: less than 1e-05 s⁻¹ for the first, 0.000135 ± 2.6e-05 s⁻¹ for the second.

Going from G44A A48G U55A to G41U A52U U55A C70U, the “self-cleavage kobs at 10000 uM GlcN6P” value rises from less than 1e-05 s⁻¹ to 9.97e-05 ± 2.6e-05 s⁻¹.

G37A G60U and G51C G66A cannot be ordered by “self-cleavage kobs at 10000 uM GlcN6P” value: less than 1e-05 s⁻¹ for the first, less than 1e-05 s⁻¹ for the second.

Compared with G43A U47A, A39U U65C C67G is 5.4-fold higher in “self-cleavage kobs at 10000 uM GlcN6P” value: 4.61e-05 ± 1.8e-05 s⁻¹ for the first, 0.00025 ± 6e-05 s⁻¹ for the second.

Compared with G37A A52U U57A, G35C G37A U49A A52G A53U U56G C61G is lower in “self-cleavage kobs at 10000 uM GlcN6P” value: 0.000104 ± 1.9e-05 s⁻¹ for the first, less than 1e-05 s⁻¹ for the second.

Compared with G35C C50G U54G, G32A G41U C50U U56A G62U is lower in “self-cleavage kobs at 10000 uM GlcN6P” value: 0.000106 ± 1.6e-05 s⁻¹ for the first, less than 1e-05 s⁻¹ for the second.
